In paper PMC8809517, “Cofactor-independent RNA editing by a synthetic S-type PPR protein” one finds Kd data, which are given here for 4 molecules.

Holding throughout (assay): high-throughput RNA pulldown from lysate on Ni-NTA beads; HRP: 50 mM Tris pH 8, 150 mM NaCl, 1 mM beta-mercaptoethanol, 50 ug/ml BSA, 3 ug/ml yeast RNA, 0.5% heparin; ITC and FP: Tris pH 8, 200 mM KCl, 5% glycerol; MST: 50 mM Tris pH 8, 200 mM NaCl, 1 mM DTT, BSA, heparin, 0.05% Tween 20
Common to all, as to conditions: tags: N-terminal His-eGFP

Data set [1] has as its target T1, GFP-9S library array, motif 4 ND N98E;D124E (synthetic construct, N98E;D124E).
T1 chain: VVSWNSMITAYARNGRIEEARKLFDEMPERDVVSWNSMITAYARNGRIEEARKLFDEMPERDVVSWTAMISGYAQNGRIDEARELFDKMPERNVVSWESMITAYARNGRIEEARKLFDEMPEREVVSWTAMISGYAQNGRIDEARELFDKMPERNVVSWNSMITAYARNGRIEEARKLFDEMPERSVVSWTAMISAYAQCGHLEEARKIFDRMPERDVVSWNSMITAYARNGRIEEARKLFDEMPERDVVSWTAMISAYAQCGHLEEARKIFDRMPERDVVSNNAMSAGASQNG

The target of data set [2] is T2, GFP-9S library array, motif 4 ND N98G;D124T (synthetic construct, N98G;D124T).
T2 chain: T1 chain with E98G, E124T

Data set [3] has as its target T3, GFP-9S library array, motif 4 ND N98E;D124M (synthetic construct, N98E;D124M).
T3 chain: T1 chain with E124M

The target in data set [4] is T4, GFP-9S library array, motif 4 ND N98A;D124W (synthetic construct, N98A;D124W).
T4 chain: T1 chain with E98A, E124W

The target of data set [5] is T5, GFP-9S library array, motif 4 ND N98Q;D124I (synthetic construct, N98Q;D124I).
T5 chain: T1 chain with E98Q, E124I

Residue numbers refer to the chain shown, from its start.

As for AUUAGACGUGA (ssRNA) [Cy5-rpoA-G], the Kd – broadly, the concentration at which binding is half-saturated – in data set [1] (label: 5' Cy5) worked out at 169 nM; in data set [2] (label: 5' Cy5), 436 nM; in data set [3] (label: 5' Cy5) it was 136 nM; in data set [4] (label: 5' Cy5), 104 nM; in data set [5] (label: 5' Cy5) it was 102 nM.
The corresponding values for AUUACACGUGA (ssRNA) [Cy5-rpoA] are 248 nM, 169 nM, 105 nM, 129 nM and 142 nM.
In the case of AUUAAACGUGA (ssRNA) [IR-rpoA-A], the Kd in data set [1] (label: 5' IRDye 800CW) stood at 387 nM; in data set [2] (label: 5' IRDye 800CW) it was 108 nM; in data set [3] (label: 5' IRDye 800CW), 360 nM; in data set [4] (label: 5' IRDye 800CW), 138 nM; in data set [5] (label: 5' IRDye 800CW), 315 nM.
In the same order, the values of AUUAUACGUGA (ssRNA) [IR-rpoA-U] are 675 nM, 236 nM, 206 nM, 149 nM and 344 nM.
